According to patent US20130330355A1 (APEXIGEN, published 2013):
One block for each binder: values may come before it.

Columns and labels:
monkey IL-1β = monkey IL-1β (monkey); assay: cross-species reactivity assay, antibody titrated on IL-1β of each species, readout OD405nm
mouse IL-1β = mouse IL-1β (mouse, UniProt P10749 118-269); assay: as above
recombinant human IL-1β [1] = biological target: T1, recombinant human IL-1β (human, UniProt P01584 117-269); assay: as above
T1 construct: The assays (SPR, TF-1 proliferation) say only 'IL-1β'; also called hIL-1β

recombinant human IL-1β [2] = biological target: T1, recombinant human IL-1β; assay: method not given
recombinant human IL-1β [3] = biological target: T1, recombinant human IL-1β; assay: cell-based or functional assay
recombinant human IL-1β [4] = biological target: T1, recombinant human IL-1β; assay: SPR
Description: Antigen binding affinities of anti-IL-1β antibodies were measured by surface Plasmon resonance (SPR).

monkey IL-1β (monkey), sequence (P48090 117-269): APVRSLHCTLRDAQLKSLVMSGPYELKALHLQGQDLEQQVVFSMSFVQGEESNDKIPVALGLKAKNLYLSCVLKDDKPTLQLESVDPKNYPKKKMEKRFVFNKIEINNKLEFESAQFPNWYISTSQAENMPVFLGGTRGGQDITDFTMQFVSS
mouse IL-1β, sequence (P10749 118-269 limits assumed): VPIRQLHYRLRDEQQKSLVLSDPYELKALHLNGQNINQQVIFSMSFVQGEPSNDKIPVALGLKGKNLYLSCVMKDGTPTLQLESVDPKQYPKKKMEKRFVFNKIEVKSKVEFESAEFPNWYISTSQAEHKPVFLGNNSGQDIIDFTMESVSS

EC50 (read off the curve) (monkey IL-1β): ~600 ng/mL
binding result (mouse IL-1β): no binding (tested: 10 ug/ml)
EC50 (read off the curve) (recombinant human IL-1β [1]): ~600 ng/mL
Kd (recombinant human IL-1β [2]): 0.199 nM
B1: APX002 (humanized Q26) (antibody, V domains shown)
VH: EVQLVESGGGLVQPGGSLRLSCAVSGFSLDVYTMTWVRQAPGKGLEWIGYIWSGGSASYASWAKGRFTISKDSSKNTVYLQINSLRAEDTAVYFCARVKMISNIETFDPWGPGTLVTVSS
VL: DIQMTQSPSSVSASVGDRVTIKCQASERIYSGLAWYQQKPGKRPKLLIYRASTLASGVPSRFSGSGSGTDFTLTISSLQPEDFATYYCQQGVSSSDIDNVFGGGTKVEIK

IC 50, neutralization of IL-1β-induced TF-1 cell proliferation (recombinant human IL-1β [3]): 1.13 ng/mL
B2: Q17 rabbit anti-IL-1β antibody (antibody, V domains shown)
VH: QSVEESGGRLVTPGTPLILTCTVSGFSLDVYTVTWVRQAPGKGLEWIGYIWSGGSASYASWAKGRFTISKTSTTVDLKISSPTTEDTATYFCARVKMISNIETFDPWGPGTLVTVSS
VL: AYDMTQTPASVEVVVGGTVTIKCQASERIYSGLAWYQQKPGQRPKLLIYRASTLASGVPSRFSGSGSGTEFTLTISDLECADAATYYCHQGVSSSDIDNVFGGGTEVVVK

IC 50, neutralization of IL-1β-induced TF-1 cell proliferation (recombinant human IL-1β [3]): 0.55 ng/mL
B3: Q34 rabbit anti-IL-1β antibody (antibody, V domains shown)
VH: B2 VH
VL: B2 VL

Kd (recombinant human IL-1β [4]): 0.199 nM
koff (recombinant human IL-1β [4]): 3.8e-05 s⁻¹
kon (recombinant human IL-1β [4]): 191000 M⁻¹ s⁻¹
IC 50, neutralization of IL-1β-induced TF-1 cell proliferation (recombinant human IL-1β [3]): 0.54 ng/mL
B4: clone Q26 rabbit anti-IL-1β antibody (antibody, V domains shown)
VH: B2 VH
VL: B2 VL
notes: Recombinant rabbit IgG expressed in 293-6E cells; the rabbit constant regions are not; also called parental rabbit Q26
